Assay results published in a protein production outcome set (Wang et al. 2014).

Experiment: label from the status in PepcDB records

Which protein production does the source give for “MNLTKRITAWFLTLVMVLGLIPQTMFAQEIATSPLQYEATQEMNEDKTEATISIKFTETETIQLEKVTLSDGTEKVEDLSEVTYTVSENGKYDFKVNYVMEGTPQEETISVEVSGLEEKIKELVTNQNIELDVDIQLKGATYFDGHPNPFFGGTKQYMISDRSIIPYNGMQLMELIVEIPYQEGLEIQGITPSAASQYPDLSKVEKDDKNKKWTYSFYFYKNGTYEFTIDYILNGENKITSTSFTVDGLVSIKDIAMRRHLINEYGEFSGFRYQDGQYVTQDILAKEPSVGFFTFGLDGDNGTTAEYTTSLDGLQYLKNATGLYLYDCKKLAEGETIEPVTEGYYPNMKLFRVSNLNERPNMPKSAYNAELVTKSIANMPALTELVINGTGFSDCTVFRKITAGSLDYLQAMANNIVSLDGIESQQNLSSINIGQNKIKSIDPLSKLNQINFLNLMRNEVFDLRPINESLNQKAVAGNTVYGFAAREQNITYDRTVITPLQNGMYTVELPMPIDIDGSLTNTSSVSLKFANGTTKTYSTSQSEGKTYISIPEGDVDSSQENPFEGAEFKFSFNNNNGADPRTKAWFTGTVTFKASPIATNYHVIYDFISGTRGKSLPPEITNLLPIDSTKYYEGDTITAKNPTQLELEVSDGVWTFEGYDADSKTANANSANEDGNIQFTGTWIFETKKYDVSYKFESINTDKEVPKEILDMLPTVGSVEHGKTVNAPETEYKDVKVTDGVWSFKGWTPVKYENVTGNVEFVGKWEFKKNASIINHIPTISASDKTLTVGDTFDPLKDVTARDKEDGDLTKEIEILKNEVNTSKARVYEVTYKVTDSKGASSIKTIYVTVNPKMEELNRIPTISASDKTLTVGDTFDPLKDVTATDKEDGDLTKEIEILKNEVNTSEAGVYEVTYKVTDSKGASSIKTIYVTVNPKMEELNRIPTISASDKTLTVGDTFDSLKDVTATDKEDGDLTKEIEILKNEVNTSKAGVYEVTYKVTDSKGASSIKTIKVTVIEKNIPIIPNEPDKPSKPDTNKPEDNGSVGTGDKTNGVFWTMLSIICGISVIGVYRKKREINQ” here?
Its protein production is “failed”.

With “MNMDFNLFMNDIVRQARQEITAAGYTELKTAEEVDEALTKKGTTLVMVNSVCGCAGGIARPAAYHSVHYDKRPDQLVTVFAGQDKEATARARDYFEGYPPSSPSFAILKDGKIMKMVERHEIEGHEPMAVVAKLQEAFEEYCEEV” as the sequence, how does the protein production read?
Its protein production is “not failed”.

Which protein production does the source give for “MNMDISKAAIVTGGSRGIGRAIAARLAADGFAVVVNYAGNGAKAHETVAAIESAGGKAIAIQGDVGKPQDVANLFAQARAAFGRIDVVVNSAGVMPMASIDVANLDAFDQVIATNLRGAFLVLAQAAANLGDDGRIIALSTSVIAKSLPGYGPYIASKAGVEGLVHVLANELRGRNITVNAIAPGPVGTDLFFNGKSEEAVASIARQAPMERIGMPDEIAAAVSFLAGPDGRWVNAQVLRVNGGFA” here?
The protein production was “failed”.

Which protein production does the source give for “MNMGKKIQEMAVWLEFLVGSGLAIFFHLVLHYEQAAYVIFGIGILLALGTYLIREEIEKNRSHLVEQYQQAHEIPFAMAGIADPECLAKAHELIAGTRRTITILQQGYIPLDENEFYLEGAKLSDQAVREIRAVDPLMAGWWTRGALVNFYQANLRALDRGVRIRRIFVVNREELGEPEVQKVLLSHYRDDIDIRIVYRDELPAAGEIIGRDTNSSFDFALYDDRVATDVFAHPGKYYGRKTAQPMEVAKYRHLYELIEHSAHTVSEDGDRIVPSAEVMPLAS” here?
The protein production was “failed”.

Which protein production does the source give for “MNMIEPAPVRKSVTVRTSPQQAFDVFVSGMGTWWIKGHSLTQSGQKTVVVEAVAGGRWYEIGNAGEECEWGRVIACDRPNRVLFDWQLNADFDYDPGLHTEVEVLFEANGEGGTTVILEHRHLEKYGVKAKEMRGIFDSENGWGGLLASYMEKAAA” here?
Its protein production is “failed”.

Which protein production does the source give for “MNMNKTYIPKLDDLLGGGVKEGASIMFSASPGVDYEAFGYQMLNGRLDEGTRGFIFTNVEEPESIIYEFRSYGWDIESHIENGNLFFVDGSSPFLGMPSDQRYTVNDYSEIKDVVLNAINDIPGGVGIINNLSVIIDYLGNGDTLEIVEAWNRRASELDVNLVYLFTEWDYEPELIDKLRESMDCVVNLRTIEERVIIGQGFMVANSAWSEPPSTMVLFFVVQPGGVKVYVPKILVTGPYNSGKSSFVRAIATKSVSVDRKALSAFPTTIAMDIGHLEYKGFMADIFGTPGQERFDMILDVLSREAVGAFILLDSTAPETFARAKEMIRKTRAEAIPKVVVANKQDLPGALSPEEIREMMKLGADVPIVPASVTEGWGVRDALDTLLGLLYGGLEHHHHHH” here?
The protein production was “failed”.

With “MNNEAVFSARLSSTQHVGLCRLCNSPLVHTFVDLGMSPPCESFVAADAANDVEPFYPLHAFVCDECFLVQLQEYVAPENIFTEYAYFSSFSDSWVAHAKRYCDMVIERFALGQSSFVVELASNDGYLLQHFLTSNIPMLGIEPAVNVAKVAIGKGIPTLTEFFNEALATDMAARGQKADLIIGNNVLAQVPDINDFVAGMKTLLKPEGVITLEFPHIEKLIAENQFDTIYHEHFSYFSLLTIEKMARRHGLKVFDVEEIPTHGGSLRVFFSHEDIRFPREARVDSLLARELNAGLDKIETYTAFAEAVRQTKRNLLSFLIRLKEMRKSICAYGAPGKGNTLLNYCGIGTDFIDFAVDRNPYKHGRLTPGMHIPIRPVSEIPHMKPDYVLILPWNLKNEIVAQMKDIRNWGGKFIVPIPDISIIDPKELVQ” as the sequence, how does the protein production read?
Its protein production is “failed”.

With “MNNKFKDFFGFGDNDSYEERDAYEEHYDEQEEMQNSNRPTNSRDSNVVSIKAGQAGSGPSKIVLYEPRVYSDAKEVAQNLLNQRAIIINFSRMDDASARRVVDFITGTVYALNGEIQRIGDKIFLATPPKFETDGKITELLDKKDTLG” as the sequence, how does the protein production read?
The protein production was “failed”.

Which protein production does the source give for “MNNKTNWVIIGRFGRPHGIKGFVTVHSFTDPADNILRYNDWHVFLNKQWQPLKLLTIEVRSKAIIAQIEGYPKRELVSALTNLDIGVQESQLAALAPGEYYWYQLIGMSVINSKGDLFGKVVEIMPTGSNDVLVVEGEKRHLIPYLPGQFVINVDESQQVITVDWDMNF” here?
Its protein production is “failed”.

Which protein production does the source give for “MNNLNFTVIIPLFNKAEHILRTLQSVEWQKYPAAEIIVIDDGSTDEGPALVEKANIKNVKLVHQENQGVSAARNNGVALASHEYVAFLDADDEWLPLFLDEVARLIVKFPQAQFFGTRYQIVEPENNYCDAKIKLENINPEGVILDNYFDIASQGDLPFTMSSMVIERSLFQSIGGFPLNEPIGEDQDLFCRVALNTSIAYSPNIHSLYHKDAQNQASRINIPSTECGFSVRITKEARKDTKRKSAKYMLKYSATHLCHLAKLNIGNGHFSQARKLLSDPRCKLKPKHLIGLYGLSWIQQTSQWLANIIDYKQI” here?
The protein production was “failed”.

Which protein production does the source give for “MNNNEKKVKYFLRKTAYGLASMSAAFAVCSGIVHADTSSGISASIPHKKQVNLGAVTLKNLISKYRGNDKAIAILLSRVNDFNRASQDTLPQLINSTEAEIRNILYQGQIGKQNKPSVTTHAKVSDQELGKQSRRSQDIIKSLGFLSSDQKDILVKSISSSKDSQLILKFVTQATQLNNAESTKAKQMAQNDVALIKNISPEVLEEYKEKIQRASTKSQVDEFVAEAKKVVNSNKETLVNQANGKKQEIAKLENLSNDEMLRYNTAIDNVVKQYNEGKLNITAAMNALNSIKQAAQEVAQKNLQKQYAKKIERISSKGLALSKKAKEIYEKHKSILPTPGYYADSVGTYLNRFRDKQTFGNRSVWTGQSGLDEAKKMLDEVKKLLKELQDLTRGTKEDKKPDVKPEAKPEAKPDVKPEAKPDVKPEAKPDVKPEAKPDVKPEAKPDVKPEAKPDVKPKAKPDVKPEAKPDVKPDVKPDVKPEAKPEDKPDVKPDVKPEAKPDVKPEAKPEAKPEAKPEAKPEAKPEAKPDVKPEAKPDVKPEAKPEAKPEAKSEAKPEAKLEAKPEAKPATKKSVNTSGNLAAKKAIENKKYSKKLPSTGEAASPLLAIVSLIVMLSAGLITIVLKHKKN” here?
Its protein production is “failed”.

With “MNNQEKNMLGFNQDEYLTSAREIIAARQKAEQVADEIYQAGFSSLFFASVGGSLAPMMAINEFAKELTTLPVYVEQAAELIHKGNKRLNKDSVVITLSKSGDTKESVAIAEWCKAQGIRVVAITKNADSPLAQAATWHIPMRHKNGVEYEYMLLYWLFFRVLSRNNEFASYDRFASQLEILPANLLKAKQKFDPQADAIASRYHNSDYMMWVGGAEMWGEVYLFSMCILEEMQWKRTRPVSSAEFFHGALELLEKDVPLILVKGEGKCRALDERVERFASKITDNLVVIDPKAYALDGIDDEFRWIMAPCVVSTLLVDRLAAHFEKYTGHSLDIRRYYRQFDY” as the sequence, how does the protein production read?
Its protein production is “not failed”.

Which protein production does the source give for “MNNTIPRWRGFNLLEAFSIKSTGNFKEEDFLWMAQWDFNFVRIPMCHLLWSDRGNPFIIREDFFEKIDRVIFWGEKYGIHICISLHRAPGYSVNKEVEEKTNLWKDETAQEAFIHHWSFIARRYKGISSTHLSFNLINEPPFPDPQIMSVEDHNSLIKRTITEIRKIDPERLIIIDGLGYGNIPVDDLTIENTVQSCRGYIPFSVTHYKAEWVDSKDFPVPEWPNGWHFGEYWNREKLLEHYLTWIKLRQKGIEVFCGEMGAYNKTPHDVVLKWLEDLLEIFKTLNIGFALWNFRGPFGILDSERKDVEYEEWYGHKLDRKMLELLRKY” here?
Its protein production is “not failed”.

Which protein production does the source give for “MNPDSQHHATFNPGKGEGSPVGIAILGYGTVGSQVLRLLTENHNDFQHRAGGPLEIKGVAASSVEKHRGSLADQLGLLTDDARSLIARDDVDIVVEVIGGIDYPRELILEALHSGKSVVTANKALVAAHSEELAAAADEAGVDLYFEAAVAAAIPVLGPLRRSLAGDQIQSVAGIVNGTTNFILDAMDSTGASYDDMLAEATRLGYAEADPTADVEGHDAASKAAILASLAFHTRVTYADVYCEGISKITADDINAAKEAGFTIKLLAICERLNVDGVEKVSARVHPTLVPRNHPLASVDKSFNAIFVEAEAAGRLMFYGNGAGGNPTASAVLGDIVGAARNKVFGGRAPGESTYADLPIAPFGEVPTRFHIDMEVEDRVGVLADLAKTFSNHGISLRTVRQAEKDGHARLIVVTHTAKESELEATVEQIKNSDSVKKINSVIRLAGE” here?
Its protein production is “failed”.

For “MNPENKMMLMAYGIFAIAGIISGILAYAPLGWIIGWIIYILAPKLLLNLVPDLPEELRNERVILRKTFWSFFFFWLYFTGLTYTLITNYEPVAYYEKALYYNITKG”, which protein production is on record?
The protein production was “failed”.

Which protein production does the source give for “MNPKHSCTNFGADIPVNSQLIVTTSELRQKLKEKNKFILVDNRTWDEHIGKVSGYTYYDKKGRIPGALYGHSGSDSVSLEEYRNIDNTMRNKYEILEMWDKENIDVNKQLIFMCGSGWRAAEVLTYANVIGVENTSLYSDGWMGWSLDNSNLIEVGEHKLEHHHHHH” here?
Its protein production is “failed”.

Which protein production does the source give for “MNPLDLIAKRAYPYETEKRDKTYLALNENPFPFPEDLVDEVFRRLNSDALRIYYDSPDEELIEKILSYLDTDFLSKNNVSVGNGADEIIYVMMLMFDRSVFFPPTYSCYRIFAKAVGAKFLEVPLTKDLRIPEVNVGEGDVVFIPNPNNPTGHVFEREEIERILKTGAFVALDEAYYEFHGESYVDFLKKYENLAVIRTFSKAFSLAAQRVGYVVASEKFIDAYNRVRLPFNVSYVSQMFAKVALDHREIFEERTKFIVEERERMKSALREMGYRITDSRGNFVFVFMEKEEKERLLEHLRTKNVAVRSFREGVRITIGKREENDMILRELEVFK” here?
Its protein production is “not failed”.

With “MNPPDISVLIVSFNTRDLLRRCLASLRDQAGGTGIETIVVDNASRDGSADMVEAEFPDVRLIRSPVNLGFGNANNLAFTQSRGRYLVLLNSDACLAPGLLDAASKRMDACPDVGMAGGRLVGPEGGWQPSARMFPSLLNEFLVLSGLAHRYPKSRLFGRFDRTWADPSEEAGVDWVPGAFAILRRDLIDRIGFFDPRFFLYYEEVDLCRRIRAAGCKIMYWPELVITHLGGESAKTLSDMEFSSHASQLTLWRMRSQALYYRKWHGLALAWSAKTLEQLWHWLRALRHRRSAPAKAHDSEALIRLWNRAWKETEGGRVSPPQPWLEHHHHHH” as the sequence, how does the protein production read?
The protein production was “failed”.

Which protein production does the source give for “MNPPEKLLTAENPALRQRAKAMRQEMSEAEAKLWQHLRAGRLNGYKFRRQQPMGNYIVDFMCVTPKLIVEADGGQHAEQAVYDHARTVYLNSLGFTVLRFWNHEILQQTNDVLAEILRVLQELEKQPAR” here?
Its protein production is “not failed”.

Which protein production does the source give for “MNQEFFMLSQAMVEHLNEQINLEFFSSNLYLQMSAWCEDKGFDGAAEFLRAHAVEEMQHMQRLFTYVSETGALPILGAIAAPRHDFASLGEVFRETYQHEQKITQQINKLAHVAFTSQDYSTFNFLQWYVAEQHEEEKLFKGILDKLELVGEDGKALFFIDKDLAALAKKGSSSVMDAPAE” here?
Its protein production is “not failed”.
